Key:
Test in all cases: SPR (Biacore), antibody captured on chip, soluble FcgR as analyte; experiment 2
[1] = target: T1, FcγRIIIa F type extracellular domain with C-terminal His tag (human, UniProt P08637 17-208)
T1 construct: extracellular domain; also called FcgRIIIa F; FcgRIIIaF; not shown: His tag at the C terminus
Method: (§1) Antibodies of interest were analyzed for the interaction to FcgR according to the method described in Reference Example 8.
(§2) Analysis of interaction between obj ective antibody and the FcγR was carried out using Biacore T100 (GE Healthcare), Biacore T200, Biacore A100, and Biacore 4000. HBS-EP+ (GE Healthcare) was used as the running buffer, and the measurement temperature was set to 25° C. Chips produced by immobilizing the antigen peptide by the amine coupling method to a Series S sensor Chip CM5 (GE Healthcare), chips produced by allowing preliminarily biotinylated antigen peptides to interact with and immobilize onto a Series S Sensor Chip SA (certified) (GE Healthcare), chips produced by immobilizing Protein L (ACTIGEN, BioVision) to Series S Sencor Chip CM5 (GE Healthcare), or chips produced by immobilizing Protein A/G (Thermo Scientific) to Series S Sencor Chip CM5 (GE Healthcare) were used. Antibodies of interest were captured onto these chips, and allowed to interact to each FcγR diluted with running buffer. To regenerate and repeatedly use the chip, the antibodies captured onto the chip were washed off by reacting 10 mM glycine-HCl, pH 1.5.

[2] = target: T2, FcγRIa extracellular domain with C-terminal His tag (human, UniProt P12314 16-292)
T2 construct: extracellular domain; also called FcgRI; FcgRIa; not shown: His tag at the C terminus
T2 sequence (P12314 16-292): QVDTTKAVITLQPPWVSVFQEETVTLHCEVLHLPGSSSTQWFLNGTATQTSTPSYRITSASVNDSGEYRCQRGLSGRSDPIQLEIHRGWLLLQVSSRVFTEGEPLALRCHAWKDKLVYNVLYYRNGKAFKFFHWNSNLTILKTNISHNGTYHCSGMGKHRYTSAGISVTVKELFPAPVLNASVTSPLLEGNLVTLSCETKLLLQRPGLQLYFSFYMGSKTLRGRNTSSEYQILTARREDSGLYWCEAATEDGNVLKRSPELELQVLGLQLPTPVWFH
Method: as §1, §2

[3] = target: T3, FcγRIIb extracellular domain with C-terminal His tag (human, UniProt P31994 43-217)
T3 construct: extracellular domain; also called FcgRIIb; 2b; not shown: His tag at the C terminus
T3 sequence (looked up): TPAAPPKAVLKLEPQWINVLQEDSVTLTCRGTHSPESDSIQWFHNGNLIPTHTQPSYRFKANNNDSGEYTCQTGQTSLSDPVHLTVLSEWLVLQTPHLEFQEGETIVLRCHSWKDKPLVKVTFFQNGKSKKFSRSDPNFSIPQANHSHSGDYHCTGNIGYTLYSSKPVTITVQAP
Method: as §1, §2

[4] = target: T4, FcγRIIa H type extracellular domain with C-terminal His tag (human, UniProt P12318 34-217)
T4 construct: extracellular domain; also called FcgRIIa H; FcgRIIaH; not shown: His tag at the C terminus
T4 sequence (looked up): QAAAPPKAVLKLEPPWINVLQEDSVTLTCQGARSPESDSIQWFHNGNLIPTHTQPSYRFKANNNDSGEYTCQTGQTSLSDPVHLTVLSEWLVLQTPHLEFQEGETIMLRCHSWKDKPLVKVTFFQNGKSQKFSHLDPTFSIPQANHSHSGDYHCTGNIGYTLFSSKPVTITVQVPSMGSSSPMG
Method: as §1, §2

[5] = target: T5, FcγRIIIa V type extracellular domain with C-terminal His tag (human, UniProt P08637 17-208)
T5 construct: extracellular domain; also called FcgRIIIa V; FcgRIIIaV; not shown: His tag at the C terminus
T5 sequence (P08637 17-208 F176V): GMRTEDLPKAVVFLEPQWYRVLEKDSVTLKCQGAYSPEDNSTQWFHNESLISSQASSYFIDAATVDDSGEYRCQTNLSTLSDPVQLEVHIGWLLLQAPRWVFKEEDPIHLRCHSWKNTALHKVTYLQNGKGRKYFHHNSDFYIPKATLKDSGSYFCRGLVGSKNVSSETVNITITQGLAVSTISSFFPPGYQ
Method: as §1, §2

[6] = target: T6, FcγRIIa R type extracellular domain with C-terminal His tag (human, UniProt P12318 34-217)
T6 construct: extracellular domain; also called FcgRIIa R; FcgRIIaR; not shown: His tag at the C terminus
T6 sequence (looked up): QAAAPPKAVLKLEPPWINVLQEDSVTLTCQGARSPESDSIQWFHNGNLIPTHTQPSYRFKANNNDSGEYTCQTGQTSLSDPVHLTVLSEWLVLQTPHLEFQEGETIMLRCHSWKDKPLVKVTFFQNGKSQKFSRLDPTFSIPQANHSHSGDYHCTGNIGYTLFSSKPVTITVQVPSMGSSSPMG
Method: as §1, §2

T1 sequence (P08637 17-208): as the sequence (P08637 17-208 F176V) above, with V160F counted along it

Binder | Kd [1] | Kd [2] | Kd [3] | Kd [4] | Kd [5] | Kd [6]
H240-FA009/H240-FB052/L73-k0 (antibody, human IgG1, kappa, Heterodimerized anti-EREG IgG1 antibody; A chain altered from H240-AK072, B chain altered from H240-BH076) heavy 1: QDQLVQSGAEVKKPGASVKVSCKASGFNIKDTYIQWVRQAPGQGLEWMGRIDPLRKQTKYREKFEGRVTITADTSTNTAYMELSSLRSEDTAVYYCVRSGREFDYWGQGTLVTVSSASTKGPSVFPLAPSSKSTSGGTAALGCLVKDYFPEPVTVSWNSGALTSGVHTFPAVLQSSGLYSLSSVVTVPSSSLGTKTYICNVNHKPSNTKVDKKVEPKSCDKTHTCPPCPAPEYYWGPSVFLFPPKPKDTLMISRTPEVTCVVVDVSDEEPEVKFNWYVDGVEVHNAKTKPREEQYNATYRVVSVLTVLHQDWLNGKEYKCKVSNKALPAPIEKTISKAKGQPREPQVYTLPPSRKEMTKNQVSLTCLVKGFYPSDIAVEWESNGQPENNYKTTPPVLDSDGSFFLYSKLTVDKSRWQQGNVFSCSVMHEALHNRYTQKSLSLSP heavy 2: QDQLVQSGAEVKKPGASVKVSCKASGFNIKDTYIQWVRQAPGQGLEWMGRIDPLRKQTKYREKFEGRVTITADTSTNTAYMELSSLRSEDTAVYYCVRSGREFDYWGQGTLVTVSSASTKGPSVFPLAPSSKSTSGGTAALGCLVKDYFPEPVTVSWNSGALTSGVHTFPAVLQSSGLYSLSSVVTVPSSSLGTQTYICNVNHKPSNTKVDKTVEPKSCDKTHTCPPCPAPELLGGPSVFLFPPKPKDTLMISRTPEVTCVVVDVSHEEPEVQFNWYVDGVEVHNAKTKPREEQYNSTYRVVSVLTVLHQDWLNGKEYKCKVSNDALPMPIEETISKAKGQPREPQVYTLPPSREEMTKNQVSLTCLVKGFYPSDIAVEWESNGQPENNYKTTPPVLDSDGSFFLYSKLTVDKSRWQQGNVFSCSVMHEALHNHYTQESLSLSP light: DIQMTQSPSSLSASVGDRVTITCRASQDIHKYIAWYQQKPGQAPRLLIQYTSTLQPGVPSRFSGSGSGTDYTFTISSLQPEDIATYYCLQYEQLRTFGGGTKVEIKRTVAAPSVFIFPPSDEQLKSGTASVVCLLNNFYPREAKVQWKVDNALQSGNSQESVTEQDSKDSTYSLSSTLTLSKADYEKHKVYACEVTHQGLSSPVTKSFNRGEC | 4.3 nM | 0.051 nM | 1400 nM | 72 nM | 0.89 nM | 270 nM
H240-FA012/H240-FB001/L73-k0 (antibody, human IgG1, kappa, Heterodimerized anti-EREG IgG1 antibody; A chain altered from H240-AK072, B chain altered from H240-BH076) heavy 1: QDQLVQSGAEVKKPGASVKVSCKASGFNIKDTYIQWVRQAPGQGLEWMGRIDPLRKQTKYREKFEGRVTITADTSTNTAYMELSSLRSEDTAVYYCVRSGREFDYWGQGTLVTVSSASTKGPSVFPLAPSSKSTSGGTAALGCLVKDYFPEPVTVSWNSGALTSGVHTFPAVLQSSGLYSLSSVVTVPSSSLGTKTYICNVNHKPSNTKVDKKVEPKSCDKTHTCPPCPAPEYYWGPSVFLFPPKPKDTLMISRTPEVTCVVVDVSDEEPKVKFNWYVDGVEVHNAKTKPREEQYNATYRVVSVLTVLHQDWLNGKEYKCKVSNKALPAPIEKTISKAKGQPREPQVYTLPPSRKEMTKNQVSLTCLVKGFYPSDIAVEWESNGQPENNYKTTPPVLDSDGSFFLYSKLTVDKSRWQQGNVFSCSVMHEALHNRYTQKSLSLSP heavy 2: QDQLVQSGAEVKKPGASVKVSCKASGFNIKDTYIQWVRQAPGQGLEWMGRIDPLRKQTKYREKFEGRVTITADTSTNTAYMELSSLRSEDTAVYYCVRSGREFDYWGQGTLVTVSSASTKGPSVFPLAPSSKSTSGGTAALGCLVKDYFPEPVTVSWNSGALTSGVHTFPAVLQSSGLYSLSSVVTVPSSSLGTQTYICNVNHKPSNTKVDKKVEPKSCDKTHTCPPCPAPELLGGPSVFLFPPKPKDTLMISRTPEVTCVVVDVSHEEPEVQFNWYVDGVEVHNAKTKPREEQYNSTYRVVSVLTVLHQDWLNGKEYKCKVSNDALPMPIEETISKAKGQPREPQVYTLPPSREEMTKNQVSLTCLVKGFYPSDIAVEWESNGQPENNYKTTPPVLDSDGSFFLYSKLTVDKSRWQQGNVFSCSVMHEALHNHYTQESLSLSP light: DIQMTQSPSSLSASVGDRVTITCRASQDIHKYIAWYQQKPGQAPRLLIQYTSTLQPGVPSRFSGSGSGTDYTFTISSLQPEDIATYYCLQYEQLRTFGGGTKVEIKRTVAAPSVFIFPPSDEQLKSGTASVVCLLNNFYPREAKVQWKVDNALQSGNSQESVTEQDSKDSTYSLSSTLTLSKADYEKHKVYACEVTHQGLSSPVTKSFNRGEC | 6.3 nM | 0.076 nM | 1700 nM | 110 nM | 1.5 nM | 350 nM
H240-FA024/H240-FB001/L73-k0 (antibody, human IgG1, kappa, Heterodimerized anti-EREG IgG1 antibody; A chain altered from H240-AK072, B chain altered from H240-BH076) heavy 1: QDQLVQSGAEVKKPGASVKVSCKASGFNIKDTYIQWVRQAPGQGLEWMGRIDPLRKQTKYREKFEGRVTITADTSTNTAYMELSSLRSEDTAVYYCVRSGREFDYWGQGTLVTVSSASTKGPSVFPLAPSSKSTSGGTAALGCLVKDYFPEPVTVSWNSGALTSGVHTFPAVLQSSGLYSLSSVVTVPSSSLGTKTYTCNVNHKPSNTKVDKKVEPKSCDKTHTCPPCPAPEYYWGPSVFLFPPKPKDTLMISRTPEVTCVVVDVSDEEPKVKFNWYVDGVEVHNAKTKPREEQYNATYRVVSVLTVLHQDWLNGKEYKCKVSNKALPAPIEKTISKAKGQPREPQVYTLPPSRKEKTKNQVSLTCLVKGFYPSDIAVEWESNGQPENNYKTTPPVLDSDGSFFLYSKLTVDKSRWQQGNVFSCSVMHEALHNRYTQKSLSLSP heavy 2: QDQLVQSGAEVKKPGASVKVSCKASGFNIKDTYIQWVRQAPGQGLEWMGRIDPLRKQTKYREKFEGRVTITADTSTNTAYMELSSLRSEDTAVYYCVRSGREFDYWGQGTLVTVSSASTKGPSVFPLAPSSKSTSGGTAALGCLVKDYFPEPVTVSWNSGALTSGVHTFPAVLQSSGLYSLSSVVTVPSSSLGTQTYICNVNHKPSNTKVDKKVEPKSCDKTHTCPPCPAPELLGGPSVFLFPPKPKDTLMISRTPEVTCVVVDVSHEEPEVQFNWYVDGVEVHNAKTKPREEQYNSTYRVVSVLTVLHQDWLNGKEYKCKVSNDALPMPIEETISKAKGQPREPQVYTLPPSREEMTKNQVSLTCLVKGFYPSDIAVEWESNGQPENNYKTTPPVLDSDGSFFLYSKLTVDKSRWQQGNVFSCSVMHEALHNHYTQESLSLSP light: DIQMTQSPSSLSASVGDRVTITCRASQDIHKYIAWYQQKPGQAPRLLIQYTSTLQPGVPSRFSGSGSGTDYTFTISSLQPEDIATYYCLQYEQLRTFGGGTKVEIKRTVAAPSVFIFPPSDEQLKSGTASVVCLLNNFYPREAKVQWKVDNALQSGNSQESVTEQDSKDSTYSLSSTLTLSKADYEKHKVYACEVTHQGLSSPVTKSFNRGEC | 6.7 nM | 1.8 nM | 2000 nM | 110 nM | 1.9 nM | 370 nM

Reference: US20180155451A1 (published 2018)
